Results taken from patent EP2698431B1 (Chugai Seiyaku Kabushiki Kaisha, dated 2020).
Positions count from the first letter of the chain named. Like-named read-outs stand apart in the source and are kept apart here.

T1: mouse FcγRIIb (mouse, UniProt P08101 40-217, limits assumed)
T1 construct: bought; also called mFcgRIIb; mFcgRII
T1 sequence (looked up): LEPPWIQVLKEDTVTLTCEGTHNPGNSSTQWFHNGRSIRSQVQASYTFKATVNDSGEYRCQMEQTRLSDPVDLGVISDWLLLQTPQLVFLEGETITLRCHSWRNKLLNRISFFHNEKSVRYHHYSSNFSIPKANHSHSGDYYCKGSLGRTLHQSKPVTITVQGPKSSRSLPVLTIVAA

T2: mouse FcγRIII (mouse, UniProt P08508 31-215)
T2 construct: bought; also called mFcgRIII
T2 sequence (looked up): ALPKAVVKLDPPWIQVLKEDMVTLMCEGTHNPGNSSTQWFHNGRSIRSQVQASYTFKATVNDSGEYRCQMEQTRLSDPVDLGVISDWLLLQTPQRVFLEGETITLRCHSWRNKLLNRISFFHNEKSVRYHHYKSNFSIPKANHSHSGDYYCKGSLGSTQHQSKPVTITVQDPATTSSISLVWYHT

T3: mouse FcγRIV (mouse, UniProt A0A0B4J1G0 21-203)
T3 construct: bought; also called mFcgRIV
T3 sequence: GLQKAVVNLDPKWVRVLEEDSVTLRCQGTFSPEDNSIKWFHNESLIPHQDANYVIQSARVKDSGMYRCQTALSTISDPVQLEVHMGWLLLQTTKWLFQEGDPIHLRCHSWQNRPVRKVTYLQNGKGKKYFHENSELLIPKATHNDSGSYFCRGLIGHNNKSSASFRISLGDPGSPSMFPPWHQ

T4: mouse FcγRI (mouse, UniProt P26151 25-297)
T4 construct: bought; also called mFcgRI
T4 sequence (looked up): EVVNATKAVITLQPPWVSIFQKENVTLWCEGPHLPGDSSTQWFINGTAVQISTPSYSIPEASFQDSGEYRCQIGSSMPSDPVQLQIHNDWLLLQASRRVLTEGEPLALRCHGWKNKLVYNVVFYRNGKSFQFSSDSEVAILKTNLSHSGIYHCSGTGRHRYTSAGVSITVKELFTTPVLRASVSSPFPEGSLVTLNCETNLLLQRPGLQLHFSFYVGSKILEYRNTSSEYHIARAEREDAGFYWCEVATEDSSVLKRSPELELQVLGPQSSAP

B1: VH3/L(WT)-IgG1-F890 (antibody)
chain 1: QVQLQESGPGLVKPSETLSLTCAVSGHSISHDHAWSWVRQPPGEGLEWIGFISYSGITNYNPSLQGRVTISRDNSKNTLYLQMNSLRAEDTAVYYCARSLARTTAMDYWGEGTLVTVSSASTKGPSVFPLAPSSKSTSGGTAALGCLVKDYFPEPVTVSWNSGALTSGVHTFPAVLQSSGLYSLSSVVTVPSSSLGTQTYICNVNHKPSNTKVDKKVEPKSCDKTHTCPPCPAPELLGGPSVFLFPPKPKDTLYISRTPEVTCVVVDVSHEDPEVKFNWYVDGVEVHNAKTKPREEQYNSTYRVVSVLTVLHQDWLNGKEYKCKVSNKALPAPIEKTISKAKGQPREPQVYTLPPSRDELTKNQVSLTCLVKGFYPSDIAVEWESNGQPENNYKTTPPVLDSDGSFFLYSKLTVDKSRWQQGNVFSCSVMHEALHYHVTQKSLSLSP
chain 2: not shown
B2: VH3/L(WT)-IgG1-F1009 (antibody)
chain 1: B1 chain 1 with L237R, S241K, T252V, T309Q, V310P, Q313A
chain 2: not shown
B3: VH3/L(WT)-IgG1-F947 (antibody)
chain 1: B1 chain 1 with T252V, T309Q, V310P, Q313A
chain 2: not shown

What was measured:
[1] = molecular target: T5, human FcRn (soluble, complexed with β2-microglobulin) (human, UniProt P61769 21-119); assay: SPR pH7.0
[2] = molecular target: T5, human FcRn (soluble, complexed with …); assay: SPR pH7.0; remark: listed apart in the source
[3] = molecular target: T5, human FcRn (soluble, complexed with …); assay: SPR pH7.0; remark: listed apart in the source
mouse FcγRIIb [4] = molecular target: T1, mouse FcγRIIb; assay: SPR pH7.4
mouse FcγRIII [5] = molecular target: T2, mouse FcγRIII; assay: SPR pH7.4
mouse FcγRIV [6] = molecular target: T3, mouse FcγRIV; assay: SPR pH7.4
mouse FcγRI [7] = molecular target: T4, mouse FcγRI; assay: SPR pH7.4
[8] = molecular target: T5, human FcRn (soluble, complexed with …); assay: SPR pH7.0; remark: listed apart in the source
[9] = molecular target: T5, human FcRn (soluble, complexed with …); assay: SPR pH7.0; remark: listed apart in the source
mouse FcγRIIb [10] = molecular target: T1, mouse FcγRIIb; assay: SPR pH7.4; parameters: unit not given here
mouse FcγRIII [11] = molecular target: T2, mouse FcγRIII; assay: SPR pH7.4; parameters: unit not given here
mouse FcγRIV [12] = molecular target: T3, mouse FcγRIV; assay: SPR pH7.4; parameters: unit not given here
mouse FcγRI [13] = molecular target: T4, mouse FcγRI; assay: SPR pH7.4; parameters: unit not given here
[14] = molecular target: T5, human FcRn (soluble, complexed with …); assay: SPR pH7.0; remark: listed apart in the source

| Kd [1] | Kd [2] | Kd [3] | binding amount (mouse FcγRIIb [4]) | binding amount (mouse FcγRIII [5]) | binding amount (mouse FcγRIV [6]) | binding amount (mouse FcγRI [7]) | Kd [8] | Kd [9] | binding amount (mouse FcγRIIb [10]) | binding amount (mouse FcγRIII [11]) | binding amount (mouse FcγRIV [12]) | binding amount (mouse FcγRI [13]) | Kd [14] | Binder |
| --- | --- | --- | --- | --- | --- | --- | --- | --- | --- | --- | --- | --- | --- | --- |
| 107 nM | 110 nM | 110 nM | 69.3 RU | 284 RU | 230 RU | 268 RU |  |  |  |  |  |  |  | B1 |
| 12 nM | 12 nM |  | -1.5 RU | -12.9 RU | 7.2 RU | 0.6 RU | 12 nM |  |  |  |  |  |  | B2 |
| 11 nM | 11 nM |  | 117 RU | 382 RU | 242 RU | 299 RU |  | 11 nM | 129 | 664 | 279 | 329 | 11 nM | B3 |
